Measured values published in US6749856B1, “Mucosal cytotoxic T lymphocyte responses” (priority 1997, dated 2004).

Test system: P18IIIB-I10 peptide-pulsed 51Cr labeled P815 targets
Assay: CTL 51Cr release assay with PP, LP or SP effector cells of immunized mice
Type: in vivo, BALB/c mice
Conditions: day 35

B1: rmIL-12 (protein, UniProt P43431 23-215; P43432 23-335, looked up)
Interleukin-12 subunit alpha: RVIPVSGPARCLSQSRNLLKTTDDMVKTAREKLKHYSCTAEDIDHEDITRDQTSTLKTCLPLELHKNESCLATRETSSTTRGSCLPPQKTSLMMTLCLGSIYEDLKMYQTEFQAINAALQNHNHQQIILDKGMLVAIDELMQSLNHNGETLRQKPPVGEADPYRVKMKLCILLHAFSTRVVTINRVMGYLSSA
Interleukin-12 subunit beta: MWELEKDVYVVEVDWTPDAPGETVNLTCDTPEEDDITWTSDQRHGVIGSGKTLTITVKEFLDAGQYTCHKGGETLSHSHLLLHKKENGIWSTEILKNFKNKTFLKCEAPNYSGRFTCSWLVQRNMDLKFNIKSSSSSPDSRAVTCGMASLSAEKVTLDQRDYEKYSVSCQEDVTCPTAEETLPIELALEARQQNKYENYSTSFFIRDIIKPDPPKNLQMKPLKNSQVEVSWEYPDSWSTPHSYFSLKFFVRIQRKKEKMKETEEGCNQKGAFLVEKTSTEVQCKGGNVCVQAQDRYYNSSCSKWACVPCRVRS
**Q.** B1 was tested. Which “change in HIV-specific CTL activity in mucosal or systemic sites, rmIL-12 by IP route” value (1 μg IP each day of IR immunization with PCLUS3-18IIIB 50 μg) did it give?
**A.** Its value is “did not lead to significant changes”.

**Q.** And the “change in CTL level in mucosal and systemic sites, rmIL-12 + DOTAP intrarectally with peptide” value (1 μg IR)?
**A.** The value was “significant increase in the CTL level”.

**Q.** And the “induction of mucosal or systemic CTL in IR-immunized IFNγ−/− mice treated mucosally with rmIL-12” value (rmIL-12 1 μg/mouse + DOTAP IR with peptide)?
**A.** Its value is “did not lead to the induction of mucosal or systemic CTL”.
